What all share (assay): SPR; biotinylated p62 constructs or His-MBP immobilised on streptavidin sensor chips (520-700 RU); VHHp62 injected in serial dilution; 50 mM Tris, 150 mM NaCl, 1 mM TCEP, 0.05% Tween-20, pH 7.4, 25 °C; kinetic 1:1 model
Details in all cases: both partners purified
In general terms: Surface plasmon resonance follows binding to a sensor surface in real time, without labels.

One assay addresses T1, p62(387-446)-Avi (Homo sapiens, UniProt Q13501, biotinylated).
T1 construct: p62 (SQSTM1), human, UBA domain, printed as residues 387-446; SPR construct; also called p62UBA; p62 ubiquitin associated domain; source: E. coli BL21 (DE3), purified (IMAC, 3C cleavage, SEC); not shown: His-MBP, N-terminal, cleaved; Avi, C-terminal, kept

The next assay concerns the target T2, p62(122-181)-Avi (Homo sapiens, UniProt Q13501, biotinylated).
T2 construct: p62 (SQSTM1), human, ZZ domain, residues 122-181; also called p62ZZ; p62 ZZ domain; source: E. coli BL21 (DE3), purified (IMAC, 3C cleavage, SEC); not shown: His-MBP, N-terminal, cleaved; Avi, C-terminal, kept

A further assay concerns the target T3, His-MBP-avi (Escherichia coli K12 (assumed), UniProt P0AEX9 = MBP, biotinylated).
T3 construct: Control surface protein in SPR; also called His-MBP tag; not shown: His, N-terminal, kept; Avi, C-terminal, kept

A further assay addresses T4, His-MBP-p62(85-440)-Avi (Homo sapiens, UniProt Q13501, biotinylated).
T4 construct: also called immunogen; p62 lacking essential parts of the PB1 domain; source: recombinant; not shown: His, N-terminal, kept; MBP, N-terminal, kept; Avi, C-terminal, kept

B1: VHHp62-His (6C10) (VHH)
VHH: EVQLVESGGGLVQPGGSLRLSCVASGFTFSNYWMYWVRQAPGKGLEWVSTINTGSGAAYYTSSVKGRFTISRDNAKNTLYLQMNSLKSEDTAVYYCATDLRGAQRGQGTQVTVSS
notes: anti-p62 VHH from immunised llamas, phage display clone 6C10; the AlphaFold2 model of VHHp62 had 121 residues; also called VHH 6C10; p62 single-domain antibody; source: Pichia pastoris (Komagataella phaffii), secreted, purified (IMAC, desalting); not shown: His, C-terminal, kept
Turning to B1, the equilibrium dissociation constant (Kd) (usually the concentration at which binding is half-saturated) with p62(387-446)-Avi is 36 nM; with His-MBP-p62(85-440)-Avi, 11 nM. Further, the binding result with p62(122-181)-Avi and with His-MBP-avi was “no binding” each time.
